From the nanobody polyreactivity screen of Harvey et al. (2022)

test: yeast display, Sf9 membrane polyspecificity reagent, FACS + sequencing; frameworks hold sequencing errors
Outline: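 Synthetic nanobody libraries on Saccharomyces cerevisiae BJ5465 were galactose-induced for 36–48 hours, stained 1 hour at 4 °C with 10% biotinylated, detergent-solubilized Sf9 membrane reagent and enriched on streptavidin microbeads. FACS then separated cells into low and high (top ~1%) gates by anti-HA (expression) and streptavidin (reagent binding) fluorescence. Genes were colony-PCR amplified, MiSeq 2 × 250 sequenced and CDR-length filtered. A clone's polyreactivity label is that of its gate of origin.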

Question: With “QVQLVESGGGIVQAGGSLRLSCAASGGTFIRYAMGWYRQAPGKEREFVAAISASGGSTYYADSVKGRFTISRDNAKNTVYLQMNSLKPEDTAVYYCAARRTNLPVKFYYWGQGTQVTVSS” as the sequence, how does the “polyreactivity (PSR sort gate)” value read?
Answer: high polyreactivity

Question: For “QVQLVESGGGLVQAGGSLRLSCAASGRTFKYYAMGWYRQAPGKERELVAAISRGGSTNYADSVKGRFTISRDNAKNTVYLQVNSLKPEDTAVYYCARRYIVQSGDDYWGQGTQVTVSS”, which “polyreactivity (PSR sort gate)” value is on record?
Answer: low polyreactivity

Question: Which “polyreactivity (PSR sort gate)” value does the source give for “QVQLVESGGGLVQAGGRLRLSCAASGRIFYLNAMGWYRQAPGKETELVAAINTSGDATYYADSEKGRFTISRDIAKNTVYLQMNSLKPEDTAVYYCAAYVIGPDQFIYDYWGQGPQVTVSS” here?
Answer: low polyreactivity

Question: With “QVQLVESGGGLVQAGGSLRLSCAASGSIFVYYGMGWYRQAPGKERELVAAISSGGSTHYADSVKGRFTISRDNAKNTVYFQMNSLKPEDTAVYYCAADRFFWLRSYPRYYYWGQGTQVTVSS” as the sequence, how does the “polyreactivity (PSR sort gate)” value read?
Answer: low polyreactivity

Question: Which “polyreactivity (PSR sort gate)” value does the source give for “QVQLVESGGGLVQAGGSLRLSCAASGRIFHWYAMGWYRQAPGKERELVAAIRWTGGSTYYADSVKGRFTISRDNAKNTVYLQMNSLKPEDTAVYYCAAKGYTGIFYEMDYWGQGTQVTVSS” here?
Answer: low polyreactivity

Question: Which “polyreactivity (PSR sort gate)” value does the source give for “QVQLVESGGGLVQAGGSLRLSCAASGIIFRLNTMGWYRQAPGKEREFVAAITSGGSTHYADSVKGRFTISRDNAKNTVYLQMNSLKPEDTAVYYCAAGHRANYWAWHFYYPGDYWGQGTQVTVSS” here?
Answer: low polyreactivity

Question: With “QVQLVESGGGLVQAGGSLRLSCAASGRIFLINAMGWYRQAPGKESEFVAAIRTGGNTYYADSVKGRFTLSRDNAKNTVYLQMNSLKPEDTAVYYCAADRIYPYYRWSGAHRSDVDYWGQGTQVTVSS” as the sequence, how does the “polyreactivity (PSR sort gate)” value read?
Answer: low polyreactivity

Question: Which “polyreactivity (PSR sort gate)” value does the source give for “QVQLVESGGGLVQAGGSLRLSCAASGGTFRKYAMGWYRPAPGKERELVATISNGGSTYYADSVKGRFTISRDNAKNTVYLQMNSLIPEDTAVYYCAARFDYWVSGGLVKYNYWGQGTQVTVSS” here?
Answer: high polyreactivity

Question: With “QDQLVESGGGLVQAGGSLRLSCAASGSIFVRYAMGWYRQAPGKERELVAAITSSAGYTYYADSVKGRFTISRDNAKNTVNLQMNSLKPEDTAVYYCAAVRYDASKFYYWGAGTQVTVSS” as the sequence, how does the “polyreactivity (PSR sort gate)” value read?
Answer: high polyreactivity

Question: With “QVQLVESGGGLVQAGGSLRLSCAASGFIFRVNAMGWYRPAPGKERELVAAITKSGGSTYYADSVKGRFTISRDNAKNTVYLQMNSLKPEDTAVYYCNVVWYEGYGHWGQGTQVTVSS” as the sequence, how does the “polyreactivity (PSR sort gate)” value read?
Answer: low polyreactivity

Question: For “QVQLVESGGGLVQAGGSLRLSCAASGSIFVGYAMGWYRQAPGKETELVAAISTRGGSTYYAETVKGRFTISRDNAKNTVYLQMNILKPEDNAVYYCAADYLDSTYGYVYGWDDYWGKGTQVTVSS”, which “polyreactivity (PSR sort gate)” value is on record?
Answer: low polyreactivity

Question: For “QVQLVESGGVLVQAGGSLRLSCAASGGIFGNYAMGWYRQAPGKERELVAVIDSSDGSTHYADSVKGRFTISRDNAKITVYLQMNSLKPEDTALYYCATQGFWNYWTFDYWGQGTQVTVSS”, which “polyreactivity (PSR sort gate)” value is on record?
Answer: low polyreactivity

Question: For “QVQLVESGGGLVQARGSLRLSCAASGSTFRINAMGWYRQAPGKERELVAAITSGGSTKYADSVKGRFTISRDNAKNTVYLQMYILKPADTAVYYCNKQGYPFRYFAWYPGYNYWGQGTQVTVSS”, which “polyreactivity (PSR sort gate)” value is on record?
Answer: low polyreactivity

Question: For “QVQLVESGGGLVQAGGSLRLSCAASGRIFKVYTMGWYRQAPGKERELVATITRSGTSTYYADSVKGRFTISRDNAKNTVYLQMNSLKPEDTAVYYCARRVGYKFSYDYWGQGTQVTVSS”, which “polyreactivity (PSR sort gate)” value is on record?
Answer: high polyreactivity

Question: With “QVQLVESRGGKVQAVGSLRLSCAASGLTFYTYAMGWYRQEPGKDRELVAAIRYRGGRSNYADSVKGRFTISRDNANNTVYLQMNSLKPEDTAVYYCAARSILVTQAYGYWGQGTQVNVSS” as the sequence, how does the “polyreactivity (PSR sort gate)” value read?
Answer: high polyreactivity

Question: With “QVQLVESGGGLVQAGGSLRLSCAASGSTFLFYTMGWYRQAPGKERELVAAINSGGSTNYADSVKGRFTISRDNAKNTVYLQMNSLKPEDTAVYYCNADRTYVYKYTYSFYYWGQGTQVTVSS” as the sequence, how does the “polyreactivity (PSR sort gate)” value read?
Answer: low polyreactivity

Question: For “QVQLVESGGGLVQAGGSLRLSCAASGFTFVKYAMGWYRQAPGKVRELVASISSGGSTYYADSVKGRFTISRDNAKNTVYLQMNSLKPEDTAVYYCNKSPGYGRYSRRYDSWGQGTQVTVSS”, which “polyreactivity (PSR sort gate)” value is on record?
Answer: high polyreactivity

Question: For “QVQLVESGGGLDQAGGSLRLSCAASGLTFYKYAMGWYRQAPRKERELVASISRTGGSTYYADSVKGRFTISRDNANNTVYLQMNSLKPEDTAFYYCAARRGYYYGRVGYWGQGTQVTVSS”, which “polyreactivity (PSR sort gate)” value is on record?
Answer: high polyreactivity

Question: With “QVQLVESGGGLVQAGGSLRLSCAASGSIFFSNAMGGYRQAPGKERELVAAITSTGGSTYYADSVKGRFTISRDNAKNTGYLQMNSLKPEDTAVYYCAAASRRGYYYWGQGTQVTVSS” as the sequence, how does the “polyreactivity (PSR sort gate)” value read?
Answer: high polyreactivity

Question: With “QVQLVETGGGLVQAGGSLSLSCAASGSTFAYYAMGWYRQAPGKERELVAGITWTGGSTYYADSVKGRFTISRDNAKNTVYLQMNSLKPEDTAVYYCAVTYPYGYEYDHWGQGTQVTVSS” as the sequence, how does the “polyreactivity (PSR sort gate)” value read?
Answer: low polyreactivity

Question: With “QVQLQESGGGLVQAGGSLRLSCAASGTISQEDWMGLYRQAPGKEREFVAAIGLGSNTNYADSLKGRFTISRDNAKNTVYLQMNSLKPEDTAVYYCAVSVWQYSDHVYRGQGTQVTVSS” as the sequence, how does the “polyreactivity (PSR sort gate)” value read?
Answer: low polyreactivity

Question: For “QVQLVESGGGLVQAGGSLRLSCAASGSIFGGYAMGWYRQAPGKERELVAGITYSGDSTYYADSVKGRFTISRDNAKNTVYLQMNSLKPEDTAVYYCNADQRVDHDDFDYWGQGTQVTVSS”, which “polyreactivity (PSR sort gate)” value is on record?
Answer: low polyreactivity

Question: For “QVQLVDSGGGLVQAGGSLRLSCAASGLIFDVYAMGWYRQAPGKERELVAVISSDGGTYYADSVKGLFTISRDNAKNTVYLQMISLKPEYTAVYYCAARRWREGARYSYWGQGTQVTVSS”, which “polyreactivity (PSR sort gate)” value is on record?
Answer: high polyreactivity

Question: With “QVQLVESGGGLVQAGGSLRLSCAASGSIFYLYALGWYRQAPGKERELVAAISSSGGRTYYADSVKGRFTISRDNAKNTVYLQMNSLKPEDTAVYYCAARYWAKYSYGYWGQGTQVTVSS” as the sequence, how does the “polyreactivity (PSR sort gate)” value read?
Answer: high polyreactivity

Question: With “QVQLVESGGGLVQAGGSLPLSSAASGITFRLYALGWYRQAPGKERELVATITSLGGGTYYADSVKGRFTISRDNAKNTVYLQMHCLIPEDTAVYYCAADVSRPPAGFNYWGQGSQVTVSS” as the sequence, how does the “polyreactivity (PSR sort gate)” value read?
Answer: high polyreactivity

Question: With “QGQLVESGGGLVQAGGSLSLSCAASRLTFYSNAMGWYRPAPGKEREMVAAISWIGASTYYADSVKGRFPISRDNAKNTVYLQMNSLKPEDTAVYYCAARAQARVFGWRFYYWGQGTQVTVSS” as the sequence, how does the “polyreactivity (PSR sort gate)” value read?
Answer: high polyreactivity

Question: With “QVQLVESGGGLVQAGGSLRLSCAASGSTFGQYVMGWYRQAPGKERELVAAITYSGGSTYYADSVKGRFTISRDNAKNTVYLQMNSLKPEDTAVYYCAARGRRDGYSRVPRGYWGQGTQVTVSS” as the sequence, how does the “polyreactivity (PSR sort gate)” value read?
Answer: high polyreactivity

Question: Which “polyreactivity (PSR sort gate)” value does the source give for “QVQLVESGGGLVQAGGSLRLSCAASGGTFRYNAMGWYRQAPGKERELVAAISSSGGSTYYADSVKGRFTISRDNAKNTVYLQMNSLKPEDTAVYYCAAKRRRYVELDYWGQVTQVTVSS” here?
Answer: high polyreactivity

Question: Which “polyreactivity (PSR sort gate)” value does the source give for “QVQLVESGGGLVQAGGSLRLSCAASGSTFNFNAMGWYRQAPGKERELVAAISFSGGSTYYADSVKGRFTISRDNAKNTVYLQMNSLKPEDTAVYYCRPYSRGYGYWGQGTQVTVSS” here?
Answer: high polyreactivity

Question: With “QVQLVESGGGLVQAGGSLRLSCAASGSIFGGYAMGWYRQAPGKERELVAAISFSGGSTYYADSVKGRFTISRDNAKNTVYSQMNSLKPEDTAVYYCAADPYYSYLFDYWGQGTQVTVSS” as the sequence, how does the “polyreactivity (PSR sort gate)” value read?
Answer: low polyreactivity

Question: With “QVQLVESGGGLVQAGGILRLSCAASGRTLDYSAMGWYRQAPGKERELVASITSGGSTNYADSVKGRFTISRDTAKNTVYLQMNSLKPEDTEVYYCAADSAFYRDVKSNYWGQGTQVTVSS” as the sequence, how does the “polyreactivity (PSR sort gate)” value read?
Answer: low polyreactivity

Question: Which “polyreactivity (PSR sort gate)” value does the source give for “QVQLVESGGGLVQAGGILRLSCAASGLTFEQYAMGWYRQAPGKERELVAAISWSGGRTYYADSVKGRFTISRDNAKNTVYLQMNSLKPEDTAVYYCAKDRGCPFYWRYPLGYWGQGTQVTVSS” here?
Answer: high polyreactivity

Question: For “QVQLVESGGGLVQAGGSLRLSCAASGFTFYKYVMGWYRQAPGKERELVAAITQGGGSTYYADSVKGRFTISRDNAKNTVYLQMNSLKPEDTAVYYCNARNGYGIGYWGQGTQVTVSS”, which “polyreactivity (PSR sort gate)” value is on record?
Answer: high polyreactivity

Question: Which “polyreactivity (PSR sort gate)” value does the source give for “QVQLVESGGGLVQAGGSLRLSCAASGLTFRKNAMGWYRQAPGKERELVAAISTGGRTYYADSVKGRFTISRDNAKNTVYLQMNSLKPEDTAVYYFNSVSVKSGLDYWGQGTQVTVSS” here?
Answer: high polyreactivity

Question: With “QVQLVESGGGLVQAGGSLRLSCAASGRTFSVYAMGWYRQAPGKESELVAGITGNGGSTYYADSVKGRFTISRDNAKNTVYLQMNSLKPEDTAVYYCATAYWDIITRGEYGYWGQGTQVTVSS” as the sequence, how does the “polyreactivity (PSR sort gate)” value read?
Answer: low polyreactivity

Question: With “QVQLVESGGGLVQAGGSLRLRCADSGSIFHCNAMGWNRQAPGKERELVAGITTSGGTTYYADTVKGRFTISRDNAKNTVYVQMKSLKPEATAVYYCAARIIRWRPRWPSYGKYDYWGQVTQVTVSS” as the sequence, how does the “polyreactivity (PSR sort gate)” value read?
Answer: low polyreactivity

Question: For “QVQLVESGGGLVQAGGSLRLSCAASGFIFATNAMGWYRQAPGKERELGASISSGDNTNYADSVKGRFTISRDNAKNTVYLQMNSLKPEHTAVYYCAAANKGPDQADYHYDQWGEYEYWGQGTQVTVSS”, which “polyreactivity (PSR sort gate)” value is on record?
Answer: low polyreactivity

Question: Which “polyreactivity (PSR sort gate)” value does the source give for “QVQLEDSGGGLVQAGGSLRLSCAASGLIFLDYAMGCYRQAPGKERELVAAISRSGGRTYYADSVKGRFTISRDNAKNTVYLQMNIVKPEDTAVYYCNAYQSARKKATASTYDSWGQCTQVTVSS” here?
Answer: high polyreactivity

Question: Which “polyreactivity (PSR sort gate)” value does the source give for “QVQLVESGGGLVQAGGSLRLSCAASGFIFRTNAMGWYRQAPGKERELVAAITSSGGTTFYADSVKGRFTISRDNAKNTVYLQMNSLKPEDTAVYYCAAAYKHRTRSWTYGYWGQGTQVTVSS” here?
Answer: high polyreactivity

Question: Which “polyreactivity (PSR sort gate)” value does the source give for “QVQHVESGGGLVQAGGSLRLRCAASGSIFYRYVMGWYRQAHGKERELVAAISVSGGTTYYADSVKGRITISRDNAKNTVYLQMNRLKPEDTAVYYCAAEDSLTEDPAHDYWGQGTQVTVSS” here?
Answer: low polyreactivity

Question: For “QVQLVESGGGLVQAGGSLRLSCAASGLTFYFYAMGWYRQAPGKERELVAAISYSGGSTYYADSVKGRFTISRDKAENTVYLQMNSLKPEDTAVYYCAARPTDGSGWPYRWTSDYWGHGTQVTVSS”, which “polyreactivity (PSR sort gate)” value is on record?
Answer: low polyreactivity

Question: Which “polyreactivity (PSR sort gate)” value does the source give for “QVQLVESGGGLVQAGGRLRLSCAASGRIFVYYMGWNIQAPGKERELVAAISFGGGSTYYADSVKGRFTISRDNAKNSVYLQMYSLKPEDTAVYYCNADGDDLDWNYYLVQYDYWGQGTQVTVSS” here?
Answer: low polyreactivity

Question: Which “polyreactivity (PSR sort gate)” value does the source give for “QVQLVESGAGLVQAGGSLRLSCAASGSTSTLNAMGWYRQAPGTERELVAAISRSGTSTYYADSVKGRFTISRDNAKNTVYLQMNSLKPEDTAVYYCAAYSYGPPYYYWGQGTQVTVSS” here?
Answer: high polyreactivity
